# Experimental data from EP2246362B1, “Polymer conjugates of mutated neublastin” (Biogen Idec MA Inc., priority 2003, dated 2004).
# Where a chain is given by its changes, count along the chain named. In names and notes the source's numbering stands.
# B1: 4 X 10 kDa PEG NHN106-N95K: homodimer of NBN106-N95K conjugated to four 10 kDa PEG moieties (conjugate)
# chain: ARATDARGCRLRSQLVPVSALGLGHSSDELIRFRFCSGSCRRARSPHDLSLASLLGAGALRSPPGSRPISQPCCRPTRYEAVSFMDVKSTWRTVDHLSATACGCLG
# B2: 3 X 10 kDa PEG NBN106-N95K: homodimer of NBN106-N95K conjugated to three 10 kDa PEG moieties (conjugate)
# chain: B1 chain
# B3: 1 X 20 kDa PEG-NBN104 (CHO): CHO derived NBN104 dimer glycosylated at 95,95 with one 20 kDa PEG at amino acid 1 (conjugate)
# chain: AAGARGCRLRSQLVPVRALGLGHRSDELVRFRFCSGSCRRARSPHDLSLASLLGAGALRPPPGSRPVSQPCCRPTRYEAVSFMDVNSTWRTVDRLSATACGCLG
# B4: 2 X 20 kDa PEG-NBN104 (CHO): CHO derived NBN104 dimer glycosylated at 95,95 with two 20 kDa PEGs at amino acids 1,1 (conjugate)
# chain: B3 chain
# B5: 2 X 20 kDa Branched PEG NBN106-N95K: NBN106-N95K dimer with two branched 20 kDa PEGs at amino acids 1,95 (conjugate)
# chain: B1 chain
# B6: 2 X 20 kDa PEG-NBN: E. coli derived NBN113 dimer with two 20 kDa PEGs at amino acids 1,1 (conjugate)
# chain: AGTRSSRARATDARGCRLRSQLVPVSALGLGHSSDELIRFRFCSGSCRRARSPHDLSLASLLGAGALRSPPGSRPISQPCCRPTRYEAVSFMDVNSTWRTVDHLSATACGCLG
# B7: 3 X 10 kDa PEG-WT/ N95K-NBN106: wild-type/N95K NBN106 heterodimer with three 10 kDa PEGs at amino acids 1,1,95 (conjugate)
# chain 1: B1 chain with K88N
# chain 2: B1 chain
# B8: 2 X 10 kDa PEG-NBN (ligand)
# chain: B6 chain
# modifications: 10 kDa PEG on amino acid 1 of each chain (PEGylated amino acids 1,1)
# B9: 2 X 20 kDa PEG-NBN (ligand)
# chain: B6 chain
# modifications: 20 kDa PEG on amino acid 1 of each chain (cell printed '1,1 1')
# B10: wild-type rat neublastin (NBN113), E. coli derived (ligand)
# chain: B6 chain
# B11: 2 X 5 kDa PEG-NBN (ligand)
# chain: B6 chain
# modifications: 5 kDa PEG on amino acid 1 of each chain (PEGylated amino acids 1,1)
# B12: 1 X 20 kDa Branched PEG-NBN (ligand)
# chain: B6 chain
# modifications: one 20 kDa branched PEG per dimer, on amino acid 1 of one chain (PEGylated amino acids: 1)
# B13: 3 X 10 kDa PEG-WT/N95K-NBN106 (ligand)
# chain 1: B1 chain with K88N
# chain 2: B1 chain
# modifications: 10 kDa PEG on the amino-terminal amino acid and on Lys95; 10 kDa PEG on the amino-terminal amino acid
# B14: 4 X 10 kDa PEG NBN106-N95K (ligand)
# chain: B1 chain
# modifications: 10 kDa PEG on the amino-terminal amino acid and on Lys95 of each chain (PEGylated amino acids 1,1,95,95)
# B15: 3(,4) X 10 kDa PEG NBN106-N95K (ligand)
# chain: B1 chain
# modifications: average of 3.3 10 kDa PEG (SPA-PEG) per dimer: on both amino-terminal amino acids and on one or both Lys95 (PEGylated amino acids 1,1,95 (,95))
# B16: 3 X 10 kDa PEG NBN106-N95K (ligand)
# chain: B1 chain
# modifications: three 10 kDa PEG per dimer: on both amino-terminal amino acids and on one Lys95 (PEGylated amino acids 1,1,95)
# B17: 4 X 5 kDa PEG NBN106-N95K (ligand)
# chain: B1 chain
# modifications: 5 kDa PEG on the amino-terminal amino acid and on Lys95 of each chain (PEGylated amino acids 1,1,95,95)
# B18: rat mutated neublastin NBN106-N95K (non-PEGylated) (ligand)
# chain: B1 chain
# Biological target: T1, c-Ret (Mus musculus, UniProt O35118+P35546)
# T1 construct: NB41A3-mRL3 cells, an adherent murine neuroblastoma cell line which expresses Ret and GFRα3; endogenous in cells; host or cells: NB41A3-mRL3 (murine neuroblastoma)
# Assay: Kinase Receptor Activation (KIRA) ELISA: neublastin dependent phosphorylation of c-Ret in NB41A3-mRL3 cells
# Assay type: cell-based, murine
# Conditions: not given
# Description: The potency of PEGylated mutated rat neublastin was measured using neublastin dependent activation/ phosphorylation of c-Ret as a reporter for neublastin activity in an ELISA that was specific for the presence of phosphorylated RET. NB41A3-mRL3 cells, an adherent murine neuroblastoma cell line which expresses Ret and GFRα3, were plated at 2 x 10^5 cells per well in 24-well plates in Dulbecco's modified eagle medium (DMEM), supplemented with 10 % fetal bovine serum, and cultured for 18 h at 37 °C and 5 % CO2.
# The cells were washed with PBS, and treated with serial dilutions of neublastin in 0.25 mL of DMEM for 10 min at 37°C and 5 % CO2. Each sample was analyzed in duplicate. The cells were washed with 1 mL of PBS, and lysed for 1h at 4 °C with 0.30 mL of 10 mM Tris HC1, pH 8.0, 0.5 % Nonidet P40, 0.2 % sodium deoxycholate, 50 mM NaF, 0.1 mM Na3 VO4,1 mM phenylmethylsulfonyl fluoride with gently rocking the plates. The lysates were further agitated by repeated pipetting and 0.25 mL of sample was transferred to a 96-well ELISA plate that had been coated with 5 µg/mL of anti-Ret mAb (AA.GE7.3) in 50 mM carbonate buffer, pH 9.6 at 4°C for 18 h, and blocked at room temperature for one hour with block buffer (20 mM Tris HC1 pH 7.5, 150 mM NaCl, 0.1% Tween-20 (TBST) containing 1 % normal mouse serum and 3 % bovine serum albumin).
# After a 2 h incubation at room temperature, the wells were washed 6-times with TBST. Phosphorylated Ret was detected by incubating the wells at room temperature for 2 h with 2 µg/mL of horseradish peroxidase (HRP)-conjugated anti-phosphotyrosine 4G10 antibody in block buffer, washing 6-times with TBST, and measuring HRP activity at 450 nm with a colorometric detection reagent. The absorbance values from wells treated with lysate or with lysis buffer were measured and the background corrected signal was plotted as a function of the concentration of neublastin present in the activation mixture.
# Neublastin activity was determined by its ability to stimulate c-Ret phosphorylation in NB41A3-mRL3 cells using the KIRA ELISA described in Example 3. Phosphorylated Ret was detected by incubating (2 hours) the captured receptor with HRP-conjugated phosphotyrosine antibody (4G10; 0.2 µg per well). Following the incubation, the wells were washed six times with TBST, and the HRP activity detected at 450 nm with a colorimetric assay. The absorbance values from wells treated with lysate or with lysis buffer alone were measured, background corrected, and the data plotted as a function of the concentration of neublastin present in the activation mixture.
# T1 sequence (P35546 29-1115): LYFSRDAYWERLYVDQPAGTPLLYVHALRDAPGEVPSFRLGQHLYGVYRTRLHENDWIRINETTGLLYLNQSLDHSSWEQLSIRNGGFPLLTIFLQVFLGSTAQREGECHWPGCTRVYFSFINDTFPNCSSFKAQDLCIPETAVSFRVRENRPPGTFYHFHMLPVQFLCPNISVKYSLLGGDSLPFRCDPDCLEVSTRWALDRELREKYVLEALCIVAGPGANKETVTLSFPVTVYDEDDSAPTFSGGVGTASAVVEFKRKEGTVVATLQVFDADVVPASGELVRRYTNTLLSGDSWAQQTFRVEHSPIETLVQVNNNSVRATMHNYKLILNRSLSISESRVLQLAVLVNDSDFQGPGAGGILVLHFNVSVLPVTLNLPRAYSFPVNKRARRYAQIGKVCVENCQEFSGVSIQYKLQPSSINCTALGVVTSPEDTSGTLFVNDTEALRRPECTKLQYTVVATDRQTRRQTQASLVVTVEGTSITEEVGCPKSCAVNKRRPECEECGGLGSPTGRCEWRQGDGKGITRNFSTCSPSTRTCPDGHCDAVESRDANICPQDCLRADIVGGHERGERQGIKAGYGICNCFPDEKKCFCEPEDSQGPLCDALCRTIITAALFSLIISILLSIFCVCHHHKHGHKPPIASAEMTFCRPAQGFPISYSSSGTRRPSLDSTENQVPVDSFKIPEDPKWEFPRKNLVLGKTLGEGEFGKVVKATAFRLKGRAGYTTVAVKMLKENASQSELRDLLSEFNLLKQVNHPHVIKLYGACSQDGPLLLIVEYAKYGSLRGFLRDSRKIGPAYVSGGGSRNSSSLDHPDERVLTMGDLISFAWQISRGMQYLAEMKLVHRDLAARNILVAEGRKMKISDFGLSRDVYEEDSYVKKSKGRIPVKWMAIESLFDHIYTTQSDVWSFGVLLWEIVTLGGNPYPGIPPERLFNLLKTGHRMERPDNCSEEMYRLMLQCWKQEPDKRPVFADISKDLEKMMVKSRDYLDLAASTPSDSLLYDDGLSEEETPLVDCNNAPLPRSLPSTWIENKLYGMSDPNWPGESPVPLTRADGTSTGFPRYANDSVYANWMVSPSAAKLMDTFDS
# T1 sequence (O35118 29-397): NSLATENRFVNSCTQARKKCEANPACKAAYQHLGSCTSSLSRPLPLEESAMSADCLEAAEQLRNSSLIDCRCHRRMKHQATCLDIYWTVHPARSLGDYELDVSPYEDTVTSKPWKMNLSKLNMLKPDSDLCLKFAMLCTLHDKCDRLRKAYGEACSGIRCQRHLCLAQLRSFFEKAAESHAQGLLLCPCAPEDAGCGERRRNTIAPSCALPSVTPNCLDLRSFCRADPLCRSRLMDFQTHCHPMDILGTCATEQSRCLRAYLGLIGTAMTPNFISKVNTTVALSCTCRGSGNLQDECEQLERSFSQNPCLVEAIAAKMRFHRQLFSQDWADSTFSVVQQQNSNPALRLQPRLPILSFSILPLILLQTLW
row,fold less potent than non-mutated (wild-type) NBN113 in activating Ret,Molecule
1,approximately 10 fold,B1

# Same assay, conditions: compared with wild-type NBN113 / mature form
row,activity / potency in the KIRA ELISA (in words),Molecule
1,fully active,B2
2,reduced potency,B1

# Same assay, conditions: estimated EC50, NB41A3-mRL3 cells
EC50,KIRA: ~EC50,Molecule
0.3 nM,,B3
1 nM,,B4
,inactive,B5

# Same assay, conditions: relative to wild-type, NB41A3-mRL3 cells
row,KIRA: ~Max Efficacy vs WT,Molecule
1,110%,B3
2,105%,B4
3,inactive,B5

# Test system: not given
# Assay: not given
# Design: species or system mice
# Conditions: mouse, in vivo, sc
# Source text: The pharmokinetic properties of various PEGylated and non-PEGylated mutated neublastin products in rat and mouse models were examined (see Table 8 for summary of results). The analysis of the PEGylated […] samples are complicated by the presence of adducts comprising 2, 3 and 4 PEGs per molecule, which each will display a different PK profile. In early PK studies, mice were used to facilitate screening through a variety of candidates and routes of administration. […] This difference in bioavailability was particularly pronounced following i.p. administration. Levels in mice reached 1600 ng/mL after 7 hr and remained at 400 ng/mL after 24 hr. In contrast, rat levels were constant at 100 ng/mL for 4-48 hr. Two surprising and unexpected results emerged from the PK studies summarized in Table 8: 1) PEGylation of the amino-terminal amino acids of non-glycosylated neublastin was not sufficient to increase serum exposure substantially, and 2) PEGylation of the amino-terminal amino acid(s) of neublastin together with modification (e.g. PEGylation or glycosylation) of amino acid 95 was sufficient to increase serum exposure substantially.
Molecule,Exposure in Mice After s.c. Administration,serum exposure after s.c. administration (in words)
B6,+,low-to-moderate serum exposure
B3,++,high serum exposure
B4,++,high serum exposure
B2,++,
B7,++,
B5,++,
B1,++,

# Biological target: T2, c-Ret on NB41A3-mRL3 cells (UniProt P35546 29-1115, limits assumed)
# Assay: cell-based or functional assay
# Conditions: not given
# T2 sequence (P35546 29-1115 limits assumed): as the sequence (P35546 29-1115) above
KIRA: ∼EC50,KIRA: ∼Max Efficacy vs WT,Molecule
~0.2 nM,~72%,B8
~0.6 nM,~80%,B9
,~100%,B10
~0.2 nM,~105%,B11
~0.2 nM,~83%,B12
~0.7 nM,~115%,B13
~11 nM,> 80%,B14
~1.6 nM,~90%,B15
~0.8 nM,~100%,B16
~1 nM,~80%,B17

# Biological target: T2, c-Ret on NB41A3-mRL3 cells
# Assay: cell-based or functional assay
# Conditions: not given
# Remark: another data set of the same source
KIRA: ∼EC50,KIRA: ∼Max Efficacy vs WT,IC50 in the KIRA ELISA,Molecule
0.7 nM,90%,,NBN104 (CHO) (from UniProt Q5T4W7 117-220) (ligand)
0.3 nM,110%,,1 X 20 kDa PEG-NBN104 (CHO) (from UniProt Q5T4W7 117-220) (ligand)
,,3 to 6 nM,BSA-conjugated neublastin (monosubstituted product) (from UniProt P02769 25-607)
1 nM,105%,,2 X 20 kDa PEG-NBN104 (CHO) (from UniProt Q5T4W7 117-220) (ligand)

# Biological target: T2, c-Ret on NB41A3-mRL3 cells
# Assay: cell-based or functional assay
# Conditions: not given
# Remark: another data set of the same source
IC50 in the KIRA ELISA,specific activity in the KIRA ELISA,"KIRA ELISA (potency in activating Ret, fold less than wild-type NBN113)",Molecule
3 to 6 nM,~10 nM,,B10
,,~10 fold,B14
,10 nM,,B15
,~10 nM,,B18
